The target of assay [1] is T1, rHuman Notch-1/Fc Chimera, CF (Cat# 3647-TK) (human, UniProt P46531 19-526).
T1 construct: Bought from R&D Systems
The assay can be described thus: Multispot ECL; Fab 230 nM. The protocol: (§1) An 150 μl aliquot of 1% Bovine Serum Albumin (BSA) in Tris-buffered Saline Tween (TBST) was added to each well and allowed to incubate for 30 min at 20° C. followed by washing and tap drying to completely remove any residual solution. Subsequently, a 12.5 μl aliquot of 1% BSA TBST was added to each well followed by the addition of a 12.5 μl aliquot of a purified Fab. The plate was sealed and incubated for 1 hour at 20° C. with shaking.
(§2) Detection antibodies were prepared by individually conjugating both goat anti-human Kappa light chain polyclonal antibody (K3502-1MG, Sigma-Aldrich) and goat anti-human Lambda light chain polyclonal antibody (L1645-1 mL, Sigma-Aldrich) with Ruthenium (II) tris-bipyridine-(4-methylsulfone)-N-hydroxysuccinimide (SULFO-TAG NHS-ester, Meso Scale Discovery) according to the manufacturer's instructions. TAG-detection antibody at 25 μl was added to each well and allowed to incubate for 1 hour at 20° C. with shaking. Finally, 15 μl of Read Buffer P with Surfactant (Cat # R92PC-1, Meso Scale Discovery) was added to each well. The electrochemiluminescence was measured using a Sector Imager 2400 (Meso Scale Discovery). Data was analyzed by comparing the ECL signals for an antigen to the blank of each well. A signal to blank ratio of 4 or more was considered a “Hit” Fab.
(§3) To confirm a “Hit” from the initial Multispot ECL screening, a Fab concentration dependent titration was carried out to determine the Fab-antigen binding affinity.

Assay [2] deals with T2, rHuman IGF-1 sR, (IGF-1 sR), CF (Cat# 391-GR) (human, UniProt P08069 31-932).
T2 construct: Bought from R&D Systems; also called insulin-like growth factor-1 soluble receptor
The assay is described as follows: Multispot ECL; Fab 230 nM. The protocol: as §1, §2, §3

Assay [3] deals with T3, rHuman Erythropoietin R/Fc Chimera, CF (Cat# 963-ER) (human, UniProt P19235 25-250).
T3 construct: Bought from R&D Systems; also called EPO R/Fc; Epo R/Fc chimera
T3 sequence (looked up): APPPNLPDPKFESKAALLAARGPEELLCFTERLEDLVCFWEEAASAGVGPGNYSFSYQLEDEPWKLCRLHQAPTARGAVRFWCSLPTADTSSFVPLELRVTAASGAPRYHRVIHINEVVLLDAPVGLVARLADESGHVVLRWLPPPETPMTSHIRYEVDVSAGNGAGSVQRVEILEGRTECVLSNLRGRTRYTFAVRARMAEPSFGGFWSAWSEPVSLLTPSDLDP
The assay can be described thus: Multispot ECL; Fab 230 nM. The protocol:
as §1, §2, §3

Assay [4] addresses T4, Recombinant Human DLL4 (Cat# 1506-D4/CF) (human, UniProt Q9NR61 27-529).
T4 construct: Bought from R&D Systems; also called rHuman DLL4; hDLL4
The assay can be described thus: Multispot ECL; Fab 230 nM. The protocol:
as §1, §2, §3

The target in assay [5] is T1, rHuman Notch-1/Fc Chimera, CF (Cat# …). The assay can be described thus: Multispot ECL; Fab 920 nM. The protocol:
as §1, §2, §3

The target in assay [6] is T2, rHuman IGF-1 sR, (IGF-1 sR), CF (Cat# …). The assay can be described thus: Multispot ECL; Fab 920 nM. As to the method:
as §1, §2, §3

The target of assay [7] is T3, rHuman Erythropoietin R/Fc Chimera, CF …. The assay is described as follows: Multispot ECL; Fab 920 nM. The protocol: as §1, §2, §3
The target of assay [8] is T4, Recombinant Human DLL4 (Cat# 1506-D4/CF). The assay can be described thus: Multispot ECL; Fab 920 nM. As to the method: as §1, §2, §3
Assay [9] addresses T1, rHuman Notch-1/Fc Chimera, CF (Cat# …). The assay can be described thus: Multispot ECL; Fab 57.5 nM. The protocol: as §1, §2, §3
The target in assay [10] is T2, rHuman IGF-1 sR, (IGF-1 sR), CF (Cat# …). The assay is described as follows: Multispot ECL; Fab 57.5 nM. As to the method: as §1, §2, §3
Assay [11] addresses T3, rHuman Erythropoietin R/Fc Chimera, CF …. The assay can be described thus: Multispot ECL; Fab 57.5 nM. The protocol: as §1, §2, §3
In assay [12] the target is T4, Recombinant Human DLL4 (Cat# 1506-D4/CF). The assay can be described thus: Multispot ECL; Fab 57.5 nM. As to the method:
as §1, §2, §3

Assay [13] addresses T1, rHuman Notch-1/Fc Chimera, CF (Cat# …). The assay is described as follows: Multispot ECL; Fab 14.375 nM. The protocol:
as §1, §2, §3

Assay [14] addresses T2, rHuman IGF-1 sR, (IGF-1 sR), CF (Cat# …). The assay is described as follows: Multispot ECL; Fab 14.375 nM. As to the method: as §1, §2, §3
The target of assay [15] is T3, rHuman Erythropoietin R/Fc Chimera, CF …. The assay can be described thus: Multispot ECL; Fab 14.375 nM. The protocol:
as §1, §2, §3

In assay [16] the target is T4, Recombinant Human DLL4 (Cat# 1506-D4/CF). The assay is described as follows: Multispot ECL; Fab 14.375 nM. As to the method:
as §1, §2, §3

Assay [17] concerns the target T5, rHuman HGF R/c-MET/Fc Chimera, CF (Cat# 358-MT/CF) (human, UniProt P08581 25-932).
T5 construct: Bought from R&D Systems; also called HGF R/Fc; hepatocyte growth factor receptor (HGF R/c-Met)
The assay is described as follows: Multispot ECL; Fab 70 nM. As to the method: as §1
(§4) Detection antibodies were prepared by individually conjugating both goat anti-human Kappa light chain polyclonal antibody (K3502-1MG, Sigma-Aldrich) and goat anti-human Lambda light chain polyclonal antibody (L1645-1 mL, Sigma-Aldrich) with Ruthenium (II) tris-bipyridine-(4-methylsulfone)-N-hydroxysuccinimide (SULFO-TAG NHS-ester, Meso Scale Discovery) according to the manufacturer's instructions. TAG-detection antibody at 25 μl was added to each well and allowed to incubate for 1 hour at 20° C. with shaking. Finally, 15 μl of Read Buffer P with Surfactant (Cat # R92PC-1, Meso Scale Discovery) was added to each well. The electrochemiluminescence was measured using a Sector Imager 2400 (Meso Scale Discovery). Data was analyzed by comparing the ECL signals for an antigen to the blank of each well. A signal to blank ratio of 4 or more was considered a “Hit” Fab. […]

Assay [18] addresses T4, Recombinant Human DLL4 (Cat# 1506-D4/CF). The assay is described as follows: Multispot ECL; Fab 70 nM. The protocol:
as §1, §4

For assay [19], the target named is T5, rHuman HGF R/c-MET/Fc Chimera, CF (Cat# …). The assay can be described thus: Multispot ECL; Fab 280 nM. As to the method: as §1, §4
Assay [20] deals with T4, Recombinant Human DLL4 (Cat# 1506-D4/CF). The assay is described as follows: Multispot ECL; Fab 280 nM. As to the method:
as §1, §4

In assay [21] the target is T5, rHuman HGF R/c-MET/Fc Chimera, CF (Cat# …). The assay is described as follows: Multispot ECL; Fab 17.5 nM. As to the method: as §1, §4
In assay [22] the target is T4, Recombinant Human DLL4 (Cat# 1506-D4/CF). The assay is described as follows: Multispot ECL; Fab 17.5 nM. The protocol: as §1, §4
In assay [23] the target is T5, rHuman HGF R/c-MET/Fc Chimera, CF (Cat# …). The assay is described as follows: Multispot ECL; Fab 4.375 nM. The protocol:
as §1, §4

For assay [24], the target named is T4, Recombinant Human DLL4 (Cat# 1506-D4/CF). The assay is described as follows: Multispot ECL; Fab 4.375 nM. As to the method:
as §1, §4

B1: Fab VH1-46_IGHD3-10*01_IGHJ4*01 & L12_IGKJ1*01 (Fab, V domains shown)
VH: QVQLVQSGAEVKKPGASVKVSCKASGYTFTSYYMHWVRQAPGQGLEWMGIINPSGGSTSYAQKFQGRVTMTRDTSTSTVYMELSSLRSEDTAVYYCAREYYYGSGSYYNDYFDYWGQGTLVTVSS
VL: not shown
notes: Germline-derived Fab from E. coli: VH in Plasmid A (CH1, His6 and Flag tags), VL in Plasmid C (kappa CL)
For the molecule B1, the ECL signal in assay [1] came to 9740; in assay [2], 4760; in [3] it was 6950; in assay [4], 119000; in assay [5], 20100; in assay [6], 10200. For the same molecule, the ECL signal in assay [7] was found to be 16400; in assay [8], 73600; in assay [9] it was 5890; in assay [10] it was 2830; in [11], 4040; in assay [12] it was 144000. Further, the ECL signal in assay [13] worked out at 4210; in [14] it was 1750; in assay [15], 2720; in [16], 125000.

B2: Fab VH1-46_IGHD2-15*01_IGHJ2*01 & L12_IGKJ1*01 (Fab, V domains shown)
VH: QVQLVQSGAEVKKPGASVKVSCKASGYTFTSYYMHWVRQAPGQGLEWMGIINPSGGSTSYAQKFQGRVTMTRDTSTSTVYMELSSLRSEDTAVYYCAREGYCSGGSCYSYWYFDLWGRGTLVTVSS
VL: not shown
notes: as for B1
Turning to B2, the ECL signal in assay [17] was found to be 1290; in [18] it was 2750; in [19], 3560; in assay [20], 8110; in assay [21], 565; in assay [22] it was 1220. Further, the ECL signal in [23] was found to be 193; in [24] it was 558.

These data come from patent US20110318339A1 (FABRUS, published 2011).
